The record followed here is article PMC9434101 (The EMBO Journal, 2022).

The target in test [1] is T1, 6xHis-tagged AIFM1(103–613) (UniProt O95831 103-613). The test is described as follows: ITC. For orientation: Isothermal titration calorimetry measures the heat released or taken up as one component is titrated into another.
Test [2] concerns the target T1, 6xHis-tagged AIFM1(103–613). The test is described as follows: ITC. This is another data set of the same source.

Ends that are not written are not given here.

T1 sequence (O95831 103-613): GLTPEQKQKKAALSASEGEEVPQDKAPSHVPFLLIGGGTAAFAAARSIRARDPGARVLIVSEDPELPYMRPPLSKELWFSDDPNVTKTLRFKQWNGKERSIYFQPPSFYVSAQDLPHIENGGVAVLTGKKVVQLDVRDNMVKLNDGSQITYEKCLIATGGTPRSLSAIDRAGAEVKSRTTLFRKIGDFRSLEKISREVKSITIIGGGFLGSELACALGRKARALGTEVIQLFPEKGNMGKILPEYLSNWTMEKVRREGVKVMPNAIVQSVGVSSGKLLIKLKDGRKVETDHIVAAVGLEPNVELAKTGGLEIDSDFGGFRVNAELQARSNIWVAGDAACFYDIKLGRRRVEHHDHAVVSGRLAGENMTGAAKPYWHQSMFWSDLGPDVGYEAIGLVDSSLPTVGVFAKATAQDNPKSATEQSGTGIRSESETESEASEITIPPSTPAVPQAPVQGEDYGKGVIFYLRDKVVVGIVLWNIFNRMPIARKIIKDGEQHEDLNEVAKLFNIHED

B1: CHCHD4/MIA40 peptide (unlabeled), GSEGKDRIIFVTKEDHETPSSAEL-NH2 (peptide)
peptide: GSEGKDRIIFVTKEDHETPSSAEL-NH2
Regarding B1, in test [1], binding was put at a Kd of 2940 nM.

B2: recombinant full-length MIA40/CHCHD4^C4S,C53S,C55S (natural protein)
chain: MSYSRQEGKDRIIFVTKEDHETPSSAELVADDPNDPYEEHGLILPNGNINWNSPSLGGMASGPCGEQFKSAFSCFHYSTEEIKGSDCVDQFRAMQECMQKYPDLYPQEDEDEEEEREKKPAEQAEETAPIEATATKEEEGSS
As for B2, the stoichiometry N (as a rule, a count of units in the complex or per binding partner) in test [2] was determined as 2 AIFM1 per MIA40/CHCHD4.
